Source: the supplement of paper PMC9732359
± gives the uncertainty stated by the source.

Assay: protein stability index of a GFP-peptide fusion (yeast GPS) (PSI 1-4); higher = more stable; sorted into four equal gates, so the index is relative within each strain
Summary of the method: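 Mid-log yeast cultures in leucine-free medium, carrying a pooled plasmid library, were sorted into four equal gates by their GFP/Cherry fluorescence ratio. Each plasmid expressed Cherry along with GFP fused upstream of a tiled 17-residue yeast protein peptide. Plasmids recovered from each gate were PCR-amplified and Illumina-sequenced, with reads assigned to strains by barcodes. The protein stability index was obtained by summing each gate's read frequency weighted by its gate number.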

Sequence | protein stability index (pdr5∆) | protein stability index (san1∆) | protein stability index (doa10∆) | protein stability index (ubr1∆)
GVWVRYDSRSGTHNMYK [RPL20A] | 2.3 ± 0.26 | 3.1 ± 0.29 |  | 
KWPEYVRVQRQKKILSI [RPL8A] | 1.5 ± 0.055 | 1.15 ± 0.098 | 1.2 ± 0.06 | 1.23 ± 0.038
AASVIGMLVALGRLSVR [RPC82] | 1.32 ± 0.07 | 1.11 ± 0.23 |  | 1.24 ± 0.097
FTVDKKIAERSLLLKNY [SKP1] | 3.11 ± 0.14 | 2.92 ± 0.14 | 3.44 ± 0.15 | 3.38 ± 0.27
ISAPSMEDEILSLGMDF [BRN1] | 3.23 ± 0.05 | 3.19 ± 0.05 | 3.15 ± 0.057 | 3.12 ± 0.044
PFTDRSVVRGNTFKVLS [COB] | 2.56 ± 0.18 | 2.52 ± 0.091 | 2.25 ± 0.082 | 2.37 ± 0.12
YCDKNFRENMSKEETVD [PRE3] | 3.09 ± 0.073 | 3.04 ± 0.066 | 3.02 ± 0.076 | 2.92 ± 0.049
NISSSQQLLPAPQLFPY [DSN1] | 2.71 ± 0.097 | 2.62 ± 0.078 | 2.44 ± 0.12 | 2.84 ± 0.086
GSVIQTHIAESAKEIAK [MCD1] | 2.89 ± 0.08 | 3 ± 0.048 | 2.91 ± 0.09 | 3.06 ± 0.058
PVLKKKAAFLGSEVRLR [COR1] | 3.16 ± 0.071 | 2.97 ± 0.07 | 2.91 ± 0.074 | 3.3 ± 0.078
INQINEAHPTKVKNFGV [RPL20A] | 2.93 ± 0.049 | 3.117 ± 0.031 | 3.04 ± 0.074 | 2.85 ± 0.038
EVYTKTIEVLDEVITEG [POP7] | 3.12 ± 0.064 | 3.15 ± 0.053 | 2.84 ± 0.069 | 3.03 ± 0.067
LATYCPRVQGFYVPQAR [GRR1] | 2.4 ± 0.069 | 2.03 ± 0.09 | 2.44 ± 0.078 | 3 ± 0.049
LEDFENFKGLAKEKERM [YIL149C/MLP2] | 3.51 ± 0.085 | 3.42 ± 0.054 | 3.41 ± 0.075 | 3.35 ± 0.083
EKDFCTSCLQNNNQKID [SRB8] | 3.29 ± 0.13 |  | 3.13 ± 0.09 | 2.93 ± 0.055
RELLNPRYTYHTIFSDV [YML031W/NDC1] | 3.05 ± 0.052 | 2.71 ± 0.045 | 3.01 ± 0.053 | 2.93 ± 0.058
APLNFNPIIENNVDNKY [SSN2] | 2.97 ± 0.049 | 2.79 ± 0.046 | 2.69 ± 0.052 | 2.88 ± 0.046
LLNKNTGNNLYDRNSNN [SWI1] | 2.85 ± 0.06 | 2.7 ± 0.064 | 2.79 ± 0.065 | 2.9 ± 0.038
QPTPRSASNTAKSTPNT [GAL11] | 2.93 ± 0.05 | 2.75 ± 0.058 | 2.75 ± 0.061 | 2.55 ± 0.048
SQAFDIVAALPISEKGL [RPP1] | 3.02 ± 0.2 | 2.66 ± 0.18 | 2.85 ± 0.18 | 2.66 ± 0.15
SNVLDGNKNQFEPSISR [LRP1] | 2.95 ± 0.074 | 3.12 ± 0.046 | 3 ± 0.086 | 3.36 ± 0.091
NQKTSAVAALTEVRAED [RPL8A] | 2.94 ± 0.071 | 3.18 ± 0.058 | 2.92 ± 0.082 | 2.68 ± 0.087
ELESMLEDLKNTKEIAV [RRP6] | 2.27 ± 0.051 | 2.33 ± 0.063 | 2.18 ± 0.08 | 2.61 ± 0.044
SLIIDQQENSKSGKRKP [RPC31] | 2.7 ± 0.1 | 2.69 ± 0.086 | 2.71 ± 0.099 | 2.7 ± 0.092
AAVVKTSSRQTVFLPMV [RPT5] | 3.15 ± 0.056 | 2.97 ± 0.051 | 3.02 ± 0.051 | 2.87 ± 0.061
NAISLQLKYDTSVQEKE [YIL149C/MLP2] | 2.33 ± 0.12 | 2.75 ± 0.099 | 2.61 ± 0.13 | 2.92 ± 0.07

Sequence | protein stability index (pdr5∆) | protein stability index (san1∆) | protein stability index (doa10∆) | protein stability index (ubr1∆)
AKRAQFRKKRKFELGRQ [RPS8A] | 3.28 ± 0.077 | 3.31 ± 0.066 | 3.24 ± 0.08 | 3.02 ± 0.081
KFLREVFVDGEANWPLP [RPO21] | 3.16 ± 0.079 | 3.04 ± 0.093 | 2.85 ± 0.085 | 3.12 ± 0.074
ISAKDMGQGLCNNINKG [BRR2] | 3.25 ± 0.22 | 3.12 ± 0.12 | 3.13 ± 0.14 | 3.26 ± 0.24
LYPIFLLDDKKLMDEDS [YJR042W/NUP85] | 1.84 ± 0.14 | 1.38 ± 0.29 | 2.01 ± 0.09 | 1.66 ± 0.057
VQGMNDDIFIRYLTLLS [ECM29] | 1.39 ± 0.057 | 1.8 ± 0.14 | 1.37 ± 0.053 | 1.15 ± 0.031
DSVFEQNEMIDAIAVTK [RPL3] | 2.8 ± 0.12 | 2.31 ± 0.1 | 2.57 ± 0.095 | 2.51 ± 0.042
MSGRGKGGKGLGKGGAK [HHF1] | 3.56 ± 0.27 | 3.61 ± 0.097 | 3.69 ± 0.29 | 3.58 ± 0.074
LGNVIVPNILSLDMNSM [NUT1] | 2.17 ± 0.058 | 2.04 ± 0.093 | 2.16 ± 0.06 | 2.27 ± 0.051
PRGTAKLIIHRKNDNAN [SMC3] | 2.34 ± 0.18 |  | 1.68 ± 0.29 | 1.95 ± 0.087
KIAVLNNDKREIQEELE [SMC1] | 3.37 ± 0.056 | 3.32 ± 0.039 | 3.23 ± 0.067 | 3.25 ± 0.047
HRKHIAVLKKIQSKAVE [YCG1] | 2.81 ± 0.097 | 2.69 ± 0.1 | 2.55 ± 0.11 | 2.57 ± 0.064
QLFSTFDRLNGNDTISK [SSN2] | 3.02 ± 0.087 | 3.19 ± 0.076 | 3.03 ± 0.15 | 2.96 ± 0.048
EGEKCHPQDFGNPGRIR [SEC65] | 2.76 ± 0.066 | 2.81 ± 0.057 | 3.03 ± 0.076 | 3.08 ± 0.047
NAQDIDHFLSMCQNPMQ [FAS1] | 2.84 ± 0.17 |  | 3.51 ± 0.23 | 
FLDYTTDNVSMYPSPTG [PRP8] | 2.85 ± 0.06 | 2.7 ± 0.06 | 2.85 ± 0.056 | 2.95 ± 0.057
NRVGLTLDNIDDINKAK [ARP9] | 2.93 ± 0.051 | 3.22 ± 0.045 | 3.15 ± 0.056 | 2.43 ± 0.034
RMLLNLCKSATTKMWPT [BRR2] | 1.79 ± 0.1 | 1.7 ± 0.12 | 1.47 ± 0.068 | 1.99 ± 0.069
APLKALVQEQVREFQRR [BRR2] | 1.24 ± 0.092 | 1.3 ± 0.13 | 1.26 ± 0.1 | 1.26 ± 0.13
LARACAAQTNATFLKLA [RPT5] | 2.93 ± 0.089 | 2.93 ± 0.099 | 2.76 ± 0.13 | 2.6 ± 0.27
HIQEEEEQDVDMTGDEE [RPC19] | 3.35 ± 0.13 | 3.05 ± 0.075 | 3.38 ± 0.15 | 3.27 ± 0.063
YELYINKLTILGRDYPI [IRR1] | 1.57 ± 0.038 | 1.44 ± 0.055 | 1.31 ± 0.032 | 2.04 ± 0.032
CIIAVSCTLLERGHPKD [POP1] | 1.52 ± 0.029 | 1.81 ± 0.036 | 1.46 ± 0.022 | 1.96 ± 0.027
QRIAKNDPEYMDTSDDA [DLS1] | 3.15 ± 0.12 | 2.82 ± 0.15 | 3.01 ± 0.16 | 3.01 ± 0.079
LTGEAEIEQPVTTFVFT [FAS1] | 2.98 ± 0.067 | 2.64 ± 0.096 | 3.16 ± 0.083 | 2.4 ± 0.055
LDDTTIPVGLMAQENSM [MCD1] | 1.84 ± 0.093 | 1.56 ± 0.17 | 1.5 ± 0.071 | 1.87 ± 0.078
WDLVDERTKQRTAKAYL [PRP8] | 3.6 ± 0.23 | 3.09 ± 0.074 | 3.18 ± 0.12 | 3.1 ± 0.1
